Results on three substances are retold here after patent publication US20110135672A1.

The target of experiment [1] is ILT4 receptor on dendritic cells of ILT4 transgenic mice (UniProt Q8N423). Put plainly: cell-based or functional assay.
The target in experiment [2] is ILT2-PILRβ chimera on NFAT-GFP reporter cells (UniProt Q8NHL6). The experiment can be described thus: cell-based or functional assay.
Chain of ILT2-PILRβ chimera on NFAT-GFP reporter cells (Q8NHL6 24-461, change not shown): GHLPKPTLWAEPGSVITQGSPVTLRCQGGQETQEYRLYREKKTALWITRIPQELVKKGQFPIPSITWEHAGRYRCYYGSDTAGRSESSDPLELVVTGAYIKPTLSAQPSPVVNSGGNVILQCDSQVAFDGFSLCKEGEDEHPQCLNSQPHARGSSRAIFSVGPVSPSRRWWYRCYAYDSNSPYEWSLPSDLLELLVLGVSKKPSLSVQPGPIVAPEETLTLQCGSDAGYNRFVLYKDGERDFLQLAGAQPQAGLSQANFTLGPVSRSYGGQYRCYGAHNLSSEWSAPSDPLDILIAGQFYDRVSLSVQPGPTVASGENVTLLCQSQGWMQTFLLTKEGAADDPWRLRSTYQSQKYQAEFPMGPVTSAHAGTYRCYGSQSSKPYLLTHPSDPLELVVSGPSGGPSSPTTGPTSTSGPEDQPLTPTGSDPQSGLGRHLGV

Chain of ILT4 receptor on dendritic cells of ILT4 transgenic mice (Q8N423 22-597 limits assumed): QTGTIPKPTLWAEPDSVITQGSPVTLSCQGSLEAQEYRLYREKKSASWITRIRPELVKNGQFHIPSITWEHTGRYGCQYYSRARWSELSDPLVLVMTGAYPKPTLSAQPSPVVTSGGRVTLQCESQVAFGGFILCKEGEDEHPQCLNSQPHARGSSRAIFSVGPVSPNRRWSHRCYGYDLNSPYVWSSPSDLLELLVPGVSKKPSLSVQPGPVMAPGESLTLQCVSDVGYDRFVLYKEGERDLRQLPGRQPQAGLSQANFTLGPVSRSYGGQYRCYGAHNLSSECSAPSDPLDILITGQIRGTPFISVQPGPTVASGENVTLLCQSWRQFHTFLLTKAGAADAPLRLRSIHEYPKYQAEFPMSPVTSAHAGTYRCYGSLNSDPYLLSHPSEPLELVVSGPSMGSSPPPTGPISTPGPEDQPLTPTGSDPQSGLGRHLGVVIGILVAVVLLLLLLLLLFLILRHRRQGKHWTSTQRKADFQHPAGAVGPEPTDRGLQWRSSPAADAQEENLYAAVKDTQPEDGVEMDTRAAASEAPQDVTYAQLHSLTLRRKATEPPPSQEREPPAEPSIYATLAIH

For “HLA-G1 tetrameric complexes (from UniProt P17693 25-300; P61769 21-119) (ligand)”, the fold increase of IL-6 transcript in ILT4-positive BMDCs (gene array) in experiment [1] was 9.3 fold.

In the case of “HLA-G5 dimer (from UniProt P17693 25-338; P61769 21-119) (ligand)”, the fold increase of IL-6 transcript in ILT4-positive BMDCs (gene array) in experiment [1] amounted to 8.9 fold. In experiment [2], the MFI of GFP at 100 ng/ml immobilized ligand (NFAT-GFP reporter) came out at 9.9 MFI and the percentage of GFP-positive cells at 100 ng/ml immobilized ligand (NFAT-GFP reporter) is 56.8%.

On to “HLA-G5 monomer (from UniProt P17693 25-338; P61769 21-119) (ligand)”, for which, in experiment [2], the mean fluorescent intensity (MFI) of GFP at 100 ng/ml immobilized ligand (NFAT-GFP reporter) worked out at 7.8 MFI and the percentage of GFP-positive cells at 100 ng/ml immobilized ligand (NFAT-GFP reporter) came out at 5.6%.
